Experiments:
[1] = target: mouse mCherry-JUNO (mouse) (UniProt Q9EQF4); assay: live imaging-based adhesion molecule (LIAM) assay; BHK cells, non-inducible expression (cytomegalovirus promoter); separately transfected cells mixed in equal amounts 4 h after transfection, incubated 20 h, imaged every 6 min for 12 h at 40x, 37 °C, 5% CO2; read-outs: accumulation at the cell interface and translocation to the opposite cell, % of contacting cell pairs
[2] = target: hamster JUNO (hamster); assay: as above
[3] = target: pig JUNO (pig); assay: as above
[4] = target: human JUNO (human) (UniProt A6ND01); assay: as above
[5] = target: hamster JUNO (hamster); assay: live imaging-based adhesion molecule (LIAM) assay; HEK293T cells expressing IZUMO1 mixed with HEK293T cells expressing JUNO; read-out: accumulation at the interface of the cells, % of contacting cell pairs

Sequence of human JUNO (human) (A6ND01 20-228): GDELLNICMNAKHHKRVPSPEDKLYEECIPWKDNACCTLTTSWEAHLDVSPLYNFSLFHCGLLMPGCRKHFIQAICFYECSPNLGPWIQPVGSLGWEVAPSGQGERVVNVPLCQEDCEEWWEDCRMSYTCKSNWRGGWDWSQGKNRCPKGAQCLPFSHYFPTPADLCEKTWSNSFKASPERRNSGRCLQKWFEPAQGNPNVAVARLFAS
Sequence of human IZUMO1 (Q8IYV9 22-350): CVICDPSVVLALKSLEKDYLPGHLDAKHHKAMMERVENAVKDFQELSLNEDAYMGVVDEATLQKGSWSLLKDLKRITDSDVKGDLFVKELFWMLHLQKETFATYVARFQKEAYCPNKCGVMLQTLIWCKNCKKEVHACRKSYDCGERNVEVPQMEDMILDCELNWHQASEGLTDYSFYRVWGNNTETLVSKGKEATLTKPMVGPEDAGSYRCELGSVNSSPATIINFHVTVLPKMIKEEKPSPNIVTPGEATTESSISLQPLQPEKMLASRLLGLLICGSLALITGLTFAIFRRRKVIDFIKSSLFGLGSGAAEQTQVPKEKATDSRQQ
Sequence of mouse mCherry-JUNO (mouse) (Q9EQF4 20-222): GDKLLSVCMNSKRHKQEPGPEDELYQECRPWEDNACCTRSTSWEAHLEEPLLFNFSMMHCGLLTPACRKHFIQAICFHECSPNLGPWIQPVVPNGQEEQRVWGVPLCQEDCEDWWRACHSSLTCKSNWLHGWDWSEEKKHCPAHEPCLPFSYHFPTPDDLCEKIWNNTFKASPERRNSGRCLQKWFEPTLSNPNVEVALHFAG

Substance | IZUMO1 accumulation (% of contacting cell pairs) [1] [%] | JUNO accumulation (% of contacting cell pairs) [1] [%] | IZUMO1 accumulation (% of contacting cell pairs) [2] [%] | IZUMO1 translocation (% of contacting cell pairs) [2] [%] | JUNO accumulation (% of contacting cell pairs) [2] [%] | JUNO translocation (% of contacting cell pairs) [2] [%] | IZUMO1 accumulation (% of contacting cell pairs) [3] [%] | IZUMO1 accumulation (% of contacting cell pairs) [4] [%] | IZUMO1 translocation (% of contacting cell pairs) [4] [%] | JUNO accumulation (% of contacting cell pairs) [4] [%] | JUNO translocation (% of contacting cell pairs) [4] [%] | IZUMO1 accumulation (% of contacting cell pairs) [5] [%] | JUNO accumulation (% of contacting cell pairs) [5] [%]
hamster IZUMO1 (natural protein) | 33 | 25 | 77 | 44 | 16 | 28 | – | – | – | – | – | – | –
pig IZUMO1 (natural protein) | – | – | 13 | – | 7.1 | – | 24 | 48 | 3.2 | 49 | 32 | – | –
human IZUMO1 (from UniProt Q8IYV9 22-350) (natural protein) | – | – | – | – | – | – | – | – | – | – | – | 9.3 | 2.8
